The results in this text go back to patent US20150197571A1.

Test [1] concerns the target human PD-L1 expressed on 300.19 cells (human) (UniProt Q9NZQ7). As to the kind of experiment: FACS blockade, B7-1-hIgG on 300-hPD-L1 cells, mAb 0.0195 ug/ml.
The target is the same in test [2]. The test can be described thus: FACS blockade, B7-1-hIgG on 300-hPD-L1 cells, mAb 0.078 ug/ml.
For test [3] the target is unchanged. As to the kind of experiment: FACS blockade, B7-1-hIgG on 300-hPD-L1 cells, mAb '0.0.39' [sic] ug/ml.
Test [4] has the same target. The test can be described thus: FACS blockade, B7-1-hIgG on 300-hPD-L1 cells, mAb 20 ug/ml.
Test [5] shares this target. The test can be described thus: FACS on hPD-L1 300 cells, antibody 0.1 ug/ml.
Test [6] concerns the target T1, human PD-L2 expressed on 300.19 cells (human) (UniProt Q9BQ51).
T1 sequence: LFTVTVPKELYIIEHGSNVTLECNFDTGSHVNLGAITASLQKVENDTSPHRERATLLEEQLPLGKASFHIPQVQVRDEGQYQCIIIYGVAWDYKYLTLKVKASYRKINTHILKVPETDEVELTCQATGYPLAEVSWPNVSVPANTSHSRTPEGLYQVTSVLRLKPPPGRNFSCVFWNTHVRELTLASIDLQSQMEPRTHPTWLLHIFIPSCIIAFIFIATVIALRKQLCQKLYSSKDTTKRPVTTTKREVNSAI
As to the kind of experiment: FACS competition, PD-1-Ig on hPD-L2 300 cells, mAb 10 ug/ml.

Test [7] deals with human PD-L1 expressed on 300.19 cells (human) (UniProt Q9NZQ7). As to the kind of experiment: FACS on 300.19 cells expressing human PD-L1.
For test [8] the target is unchanged. As to the kind of experiment: FACS blockade, B7-1-hIgG on 300-hPD-L1 cells, mAb 1.25 ug/ml.
Test [9] shares this target. The test can be described thus: FACS competition, PD-1-Ig on hPD-L1 300 cells, mAb 90 ug/ml.
The target of test [10] is T1, human PD-L2 expressed on 300.19 cells (human). As to the kind of experiment: FACS blockade, PD-1-hIgG1 on PD-L2 300.19 cells.
The target of test [11] is human PD-L1 expressed on 300.19 cells (human) (UniProt Q9NZQ7). As to the kind of experiment: FACS competition, PD-1-Ig on hPD-L1 300 cells, mAb 0.37 ug/ml.
The target is the same in test [12]. As to the kind of experiment: FACS competition, PD-1-Ig on hPD-L1 300 cells, mAb 0.04 ug/ml.
The target is the same in test [13]. As to the kind of experiment: FACS blockade, B7-1-hIgG on 300-hPD-L1 cells, mAb 0.625 ug/ml.
The target is the same in test [14]. The test can be described thus: FACS blockade, B7-1-hIgG on 300-hPD-L1 cells, mAb 5 ug/ml.
Test [15] shares this target. The test can be described thus: FACS blockade, B7-1-hIgG on 300-hPD-L1 cells, mAb 0.156 ug/ml.
Test [16] deals with T1, human PD-L2 expressed on 300.19 cells (human). As to the kind of experiment: FACS competition, PD-1-Ig on hPD-L2 300 cells, mAb 1.1 ug/ml.
Test [17] shares this target. The test can be described thus: FACS on hPD-L2 300 cells, antibody 0.1 ug/ml.
Test [18] has the same target. As to the kind of experiment: FACS competition, PD-1-Ig on hPD-L2 300 cells, mAb 3.3 ug/ml.
For test [19] the target is unchanged. The test can be described thus: FACS competition, PD-1-Ig on hPD-L2 300 cells, mAb 30 ug/ml.
For test [20], the target named is human PD-L1 expressed on 300.19 cells (human) (UniProt Q9NZQ7). As to the kind of experiment: FACS on hPD-L1 300 cells, antibody 10 ug/ml.
The target is the same in test [21]. The test can be described thus: FACS competition, PD-1-Ig on hPD-L1 300 cells, mAb 10 ug/ml.
Test [22] has the same target. The test can be described thus: FACS competition, PD-1-Ig on hPD-L1 300 cells, mAb 1.1 ug/ml.
Test [23] shares this target. As to the kind of experiment: FACS blockade, B7-1-hIgG on 300-hPD-L1 cells, mAb 2.5 ug/ml.
In test [24] the target is T1, human PD-L2 expressed on 300.19 cells (human). The test can be described thus: FACS competition, PD-1-Ig on hPD-L2 300 cells, mAb 90 ug/ml.
Test [25] addresses human PD-L1 expressed on 300.19 cells (human) (UniProt Q9NZQ7). The test can be described thus: FACS blockade, B7-1-hIgG on 300-hPD-L1 cells, mAb 0.313 ug/ml.
For test [26], the target named is T1, human PD-L2 expressed on 300.19 cells (human). As to the kind of experiment: FACS competition, PD-1-Ig on hPD-L2 300 cells, mAb 0.12 ug/ml.
Test [27] shares this target. The test can be described thus: FACS competition, PD-1-Ig on hPD-L2 300 cells, mAb 0.37 ug/ml.
For test [28], the target named is human PD-L1 expressed on 300.19 cells (human) (UniProt Q9NZQ7). As to the kind of experiment: FACS blockade, PD-1-hIgG1 on PD-L1 300.19 cells.
The target of test [29] is T1, human PD-L2 expressed on 300.19 cells (human). The test can be described thus: FACS on hPD-L2 300 cells, antibody 1 ug/ml.
In test [30] the target is human PD-L1 expressed on 300.19 cells (human) (UniProt Q9NZQ7). The test can be described thus: FACS competition, PD-1-Ig on hPD-L1 300 cells, mAb 3.3 ug/ml.
Test [31] has the same target. The test can be described thus: FACS blockade, B7-1-hIgG on 300-hPD-L1 cells, mAb 0.0098 ug/ml.
Test [32] has the same target. The test can be described thus: FACS blockade, B7-1-hIgG on 300-hPD-L1 cells, mAb 10 ug/ml.
Test [33] addresses T1, human PD-L2 expressed on 300.19 cells (human). As to the kind of experiment: FACS on hPD-L2 300 cells, antibody 10 ug/ml.
Test [34] has as its target human PD-L1 expressed on 300.19 cells (human) (UniProt Q9NZQ7). As to the kind of experiment: FACS on hPD-L1 300 cells, antibody 1 ug/ml.
Test [35] concerns the target T1, human PD-L2 expressed on 300.19 cells (human). As to the kind of experiment: FACS on 300.19 cells expressing human PD-L2.
Test [36] has the same target. As to the kind of experiment: FACS competition, PD-1-Ig on hPD-L2 300 cells, mAb 0.04 ug/ml.
Test [37] shares this target. As to the kind of experiment: FACS on hPD-L2 300 cells, supernatant 1 to 10.
Test [38] shares this target. As to the kind of experiment: FACS on hPD-L2 300 cells, supernatant 1 to 100.
Test [39] has the same target. As to the kind of experiment: FACS on hPD-L2 300 cells, supernatant undiluted.
For test [40] the target is unchanged. As to the kind of experiment: FACS, hybridoma supernatant on 300.19 cells expressing human PD-L2. A general note: A flow cytometer gives signals particle by particle.

UniProt Q9NZQ7, sequence (Q9NZQ7 19-290): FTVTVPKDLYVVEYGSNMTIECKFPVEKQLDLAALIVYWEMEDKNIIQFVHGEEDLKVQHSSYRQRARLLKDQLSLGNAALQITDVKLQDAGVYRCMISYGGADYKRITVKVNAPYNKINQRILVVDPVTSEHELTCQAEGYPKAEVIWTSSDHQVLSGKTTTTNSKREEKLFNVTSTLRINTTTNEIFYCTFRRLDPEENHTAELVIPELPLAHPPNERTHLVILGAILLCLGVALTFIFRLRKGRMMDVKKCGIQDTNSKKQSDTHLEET

With C1.18 mIgG2a control (antibody), the Mean of PE Signal (bound B7-1-Ig) came to 3500 in test [1], 397 in test [2], 4280 in test [3] and 4540 in [4].
On to MOPC31C isotype control antibody, for which the Mean of PE signal in test [5] worked out at 250; in test [17] it was 149; in test [20], 263; in test [29], 164; in test [33], 173; in test [34], 183. Also, the Mean of PE Signal (bound PD-1-Ig) was 52500 in test [6]; 11800 in test [9]; 13500 in [11]; 13300 in [12]; 58400 in test [16]; 52600 in [18]. Also, the Mean of PE Signal (bound PD-1-Ig) in [19] stood at 54200; in test [21] it was 12600; in test [22], 13600; in test [24] it was 53500; in test [26], 59100; in test [27] it was 60600. In addition, the Mean of PE Signal (bound PD-1-Ig) was 11900 in test [30] and 60800 in test [36]. Also, the results for the MFI in [7] and in test [35] were 45 and 19, respectively. For the same molecule, the Mean of PE Signal (bound B7-1-Ig) in test [8] was 3490; in [13] it was 3710; in test [1] it was 4760; in test [14], 3580; in test [15] it was 3720; in test [2], 4320. The Mean of PE Signal (bound B7-1-Ig) in [3] was 3990; in test [23], 3880; in [25], 3960; in test [31] it was 4410; in test [32], 3550; in [4], 3590. Also, the MFI of bound PD-1-Ig (inversely proportional to blockage) in [10] was 19200; in test [28], 26700.

B1: 4H1 monoclonal antibody (antibody, V domains shown)
VH: DVQLQESGPGLVKPSQSLSLTCTVTDYSITSDYAWTWIRQFPGNKLEWMGYITYRGTTRYNPSLTSRISFTRDTSKNQLFLQLNSVTTEDTGTYCCARSMITTGYYAMDYWGQGTSVTVSS
VL: DIVMTQSHKFMSTSVGDRVSISCKASQDVGISVAWYQQKPGQSPKLLIYWASTRHTGVPVRFTGSGSGTDFTLTISNVQSEDLADYFCQQYSSYPPTFGAGTKLELK
As to B1, the Mean of PE Signal (bound PD-1-Ig) in test [6] was 56800; in [16], 54600; in [18], 56000; in test [19], 56100; in [24] it was 52200; in [26], 52500. The Mean of PE Signal (bound PD-1-Ig) stood at 52400 in [27] and 54700 in test [36]. Further, the Mean of PE signal in [37] worked out at 757; in test [38], 672; in [39], 840. Further, the MFI of bound PD-1-Ig (inversely proportional to blockage) in [10] was found to be 21100. The same molecule yielded an MFI in [40] of 93.
